Laboratory results published in paper PMC8025780 (Biochemistry, 2020).

Biological target: the molecule itself
Assay: SAXS

B1: Staphylococcus aureus GbaA, disulfide cross-linked (oxidized) (natural protein)
chain: MRKDAKENRQRIEEIAHKLFDEEGVENISMNRIAKELGIGMGTLYRHFKDKSDLCYYVIQRDLDIFITHFKQIKDDYHSNYEVMQVSLDYLLQFKIDNKALLQCIEAGNNKLRFYQSAFYQELFDFYYDLFKSDDDTYTKFKTDMLLQSLSTSVFAFQIEHRHISIEAYRNYLLNIYLDEVGRND
modifications: intraprotomer disulfide C55-C104
- stoichiometry N: 2
